From patent publication US20220242974A1 (QURE BIOTECHNOLOGY SHANGHAI, published 2022)

Target: PD-L1-his fusion protein (Homo sapiens (Human), UniProt Q9NZQ7 19-238)
Experiment: ELISA, PD-L1-his coated, culture supernatant of the clone

Chain of PD-L1-his fusion protein (Q9NZQ7 other isoform, or with tags, fused parts or gaps limits assumed): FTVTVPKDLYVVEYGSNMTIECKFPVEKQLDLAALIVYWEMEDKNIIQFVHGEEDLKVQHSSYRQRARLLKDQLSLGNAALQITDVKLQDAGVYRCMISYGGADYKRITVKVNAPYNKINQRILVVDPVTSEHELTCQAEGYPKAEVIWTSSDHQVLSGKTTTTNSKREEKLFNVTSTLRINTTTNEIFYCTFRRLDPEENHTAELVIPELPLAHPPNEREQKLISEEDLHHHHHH

Row | Binder | binding result
1 | QP1163 nanobody (VHH, as m59) VHH: QVQLVESGGGSVQSGGSLRLSCAASGFTYGTYAMSWFRQAPGKEREGVACIDIYGRTSYTDPVKGRFTISQDNAKNTLYLQMNSLKPEDTAMYYCAARDFGYCTASWVHAGFSRYWGQGTQVTVSS | binds
2 | QP1164 nanobody (VHH, as m59) VHH: QVQLVESGGGSVQSGGSLRLSCAASGFTYGTYAMSWFRQTPGKEREGVACIDIYGRTSYTDPVKGRFTISQDNAKNTLYLQMNSLKPEDTAMYYCAARDFGYCTASWVHEGFSRYWGQGTQVTVSS | binds
3 | QP1169 nanobody (VHH, as m59) VHH: QVQLVESGGGSVQSGGSLRLSCAASGFTYGTYAMSWFRQAPGKEREGVACIDIYGRTSYTDPVKGRFTISQDNAKNTLYLQMNSLKPGDTAMYYCAARDFGYCTASWVHEGFSRYWGQGTQVTVSS | binds
4 | QP1165 nanobody (VHH, as m59) VHH: QVQLVESGGGSVQSGGSLRLSCAASGFTYGAYAMSWFRQAPGKEREGVACIDIYGRTSYTDPVKGRFTISQDNAKNTLYLQMNSLKPEDTAMYYCAARDFGYCTASWVHEGFSRYWGQGTQVTVSS | binds
5 | QP1168 nanobody (VHH, as m59) VHH: QVQLVESGGGSVQSGGSLRLSCAASGFTYETYAMSWFRQAPGKEREGVACIDIYGRTSYTDPVKGRFTISQDNAKNTLYLQMNSLKPEDTAMYYCAARDFGYCTASWVHEGFSRYWGQGTQVTVSS | binds
6 | QP1123 nanobody (VHH, as m59) VHH: QVQLVESGGGSVQSGGSLRLSCAASGYTVRHYCMGWFRQTPGKEREGVASIDTFGIPKYADSVKGRFTISQDNAKNTLNLQMDSLKPEDTAMYFCAGRSYTNCRDGPPSASHYSHWGQGTQVTVSS | binds
7 | QP1124 nanobody (VHH, as m59) VHH: QVQLVESGGGLVQPGGSLRLSCTAPGFTSNTCAMGWYRQAAGMQREWVSSISKYGITTYANSVKGRFTISKDKAEDTVYLQMNNLKPEDTAMYVCKTFSCRNRGGAYLADAWGQGTQVTVSS | binds
8 | QP1147 nanobody (VHH, as m59) VHH: QVQLVESGGGSVQAGGSLTLSCAVSGNTYSTKYMGWFRQAPGKEREGVAAILAGGRNTYYADSVKGRFTISQDNAKNTVYLQMNSLKPEDTAMYYCAADTRAAFWYIGPLNSDQYNIWGQGTQVTVSS | binds
9 | QP1158 nanobody (VHH, as m59) VHH: QVQLVESGGGSVQAGGSLTLSCAVSGNTYSTKYMGWFRQAPGKEREGVAAILAGGRNTYYADSVKGRFTISQDNAKNTVYLRMNSLKPEDTAMYYCAADTRAALWYIGPLNSDQYNTWGQGTQVTVSS | binds
10 | QP1154 nanobody (VHH, as m59) VHH: QVQLVESGGGSVQAGGSLTLSCAVSGNTYSTNYMAWFRQAPGKEREGVAAIRAGGRNTDYADSVKGRFTISQDNAKNTVYLQMNSLKPEDTAMYYCAADTRAAFWYIGPLNSDQYNIWGQGTQVTVSS | binds
11 | QP1153 nanobody (VHH, as m59) VHH: QVQLVESGGGSVQAGGSLTLSCAVSGNTYSTKYMGWFRQAPGKEREGVAAILAGGRNTDYADSVKGRFTISQDNAKNTVYLQMNSLKPEDTAMYYCAADTRAAFWSIGPLNSDQYNIWGQGTQVTVSS | binds
12 | QP1149 nanobody (VHH, as m59) VHH: QVQLVESGGGSVQAGGSLTLSCAVSGNTYSTNYMGWFRQAPGKEREGVAAILAGGRNTYYADSVKGRFTISQDNAKDTVYLQMNSLKPEDTAMYYCAADTRAAFWNIGPLNSDQYNIWGQGTQVTVSS | binds
13 | QP1156 nanobody (VHH, as m59) VHH: QVQLVESGGGSVQAGGSLTLSCAVSGNTYSTKYMGWFRQAPGKEREGVAAILAGGRNTYYADSVKGRFTISQDSAKNTVYLQMNSLKPEDTAMYYCAADTRAAFWYIGPLNSDQYNSWGQGTQVTVSS | binds
14 | QP1142 nanobody (VHH, as m59) VHH: QVQLVESGGGSVQAGGSLTLSCAVSGNTYSTNIMGWFRQAPGKEREGVAAILAGGRNTYYADSVKGRFTISQDNAKNTVYLQMNSLKPEDTAMYYCAADTRAAFWNIGPLNSDQYNIWGQGTQVTVSS | binds
15 | QP1155 nanobody (VHH, as m59) VHH: QVQLVESGGGSVQAGGSLTLSCEVSGSTYSTNYMGWFRQAPGKEREGVAAILAGGRNTDYADSVKGRFTISQDNAKNTVYLQMNSLKPEDTAMYYCAADTRAAFWYIGPLNSDQYNIWGQGTQVTVSS | binds
16 | QP1146 nanobody (VHH, as m59) VHH: QVQLVESGGGSVQAGGSLTLSCAVSGNTYSTNYMGWFRQAPGKEREGVAAILVGGRNTYYADSVKGRFTISQDNAKNLVYLQMNSLKPEDTAMYYCAADTRAAFWNIGPLNSDQYNIWGQGTQVTVSS | binds
17 | QP1150 nanobody (VHH, as m59) VHH: QVQLVESGGGSVQAGGSLTLSCAVSGNTYSTKYMGWFRQAPGKEREGVAAILAGGRNTHYADSVKGRFAISQDNAKNTVYLQMNSLKPEDTAMYYCAADTRAAFWNIGPLNSDQYNIWGQGTQVTVSS | binds
18 | QP1143 nanobody (VHH, as m59) VHH: QVQLVESGGGSVQAGGSLTLSCAVSGNTYSTKYMGWFRQAPGKEREGVAAILAGGRDTYYADSVKGRFTISQDNAKNTVYLQMNSLKPEDTAMYYCAADTRAAFWYIGPLNSDQYNIWGQGTQVTVSS | binds
19 | QP1148 nanobody (VHH, as m59) VHH: QVQLVESGGGSVQAGGSLTLSCAVSGNTYSTNYMGWFRQAPGKEREGVAAILAGGRNTAYADSVKGRFTISQDNAKNTVYLQMNSLKPEDTAMYYCAADTRAAFWNIGPLNSDQYNIWGQGTQVTVSS | binds
20 | QP1161 nanobody (VHH, as m59) VHH: QVQLVESGGGSVQAGGSLTLSCAVSGNTYSTNYMAWFRQAPGKEREGVAAIRVGGRNTDYADSVKGRFTISQDNAKNTVYLQMNSLKPEDTAMYYCAADTRAAFWYIGPLNSDQYNIWGQGTQVTVSS | binds
21 | QP1152 nanobody (VHH, as m59) VHH: QVQLVESGGGSVQAGGSLTLSCAISGNTYSTKYMGWFRQAPGKEREGVAAILAGGRNTYYADSVKGRFTISQDNAKNTVYLQMHSLKPEDTAMYYCAADTRAAFWYIGPLNSDQYNLWGQGTQVTVSS | binds
22 | QP1157 nanobody (VHH, as m59) VHH: QVQLVESGGGSVQAGGSLTLSCAVSGNTYSTNYMGWFRQAPGKEREGVAAILVGGRNTYYADPVKGRFTISQDNAKNLVYLQMNSLKPEDTAMYYCAADTRAAFWNIGPLNSDQYNIWGQGTQVTVSS | binds

Further lines, results first:

Row | binding result | Binder
23 | binds | QP1159 nanobody (VHH, as m59) VHH: QVQLVESGGGSVQAGGSLTLSCAVSGNTYSTKYMGWFRQAPGKEREGVAAILAGGRNTSYADSVKGRFTISQDNAKNTVYLQMNSLKPEDTAMYYCAADTRAAFWYIGPLNSDQYNIWGQGTQVTVSS
24 | binds | QP1139 nanobody (VHH, as m59) VHH: QVQLVESGGGSVQAGGSLTLSCAVSGNTYGTNAMGWFRQAPGKEREGVAAILGGGRNTYYADSVKGRFTISQDNAKNTVYLQMNSLKPEDTAMYYCAADTRAAFWNIGPLNSDQYNIWGQGTQVTVSS
25 | binds | QP1160 nanobody (VHH, as m59) VHH: QVQLVESGGGSVQAGGSLTLSCAISGNTYSTKYMGWFRQAPGKEREGVAAILAGGRNTYYADSVKGRFTISQDNAKNTVYLQMNSLKPEDTAMYYCAADARAAFWYIGPLNSDQYNIWGQGTQVTVSS
26 | binds | QP1141 nanobody (VHH, as m59) VHH: QVQLVESGGGSVQAGGSLTLSCAVSGNTYSTNAMGWFRQAPGKEREGVAAILGGGRNTYYADSVKGRFTISQDNAKNTVYLQMNSLKPEDTAMYYCAADTRAAFWNIGPLNSDQYNIWGQGTQVTVSS
27 | binds | QP1145 nanobody (VHH, as m59) VHH: QVQLVESGGGSVQAGGSLTLSCAVSGNTYSTKYMAWFRQAPGKEREGVAAILAGGRNTSYADSVKGRFTISQDNAKNTVYLQTNSLKPEDTAMYYCAADTRAAFWYIGPLNSHQYNIWGQGTQVTVSS
28 | binds | QP1140 nanobody (VHH, as m59) VHH: QVQLVESGGGSVQAGGSLTLSCVVSGNTYSTKYMGWFRQAPGKEREGVAAILAGGRNTYYADSVKGRFTISQDNAKNTVYLQMNSLKPEDTAMYYCAADTRAAFWNIGPLNSDQYNIWGQGTQVTVSS
29 | binds | QP1151 nanobody (VHH, as m59) VHH: QVQLVESGGGSVQAGGSLTLSCAVSGNTYSTNYMGWFRQAPGKEREGVAAILTGGRNTYYADSVKGRFTISQDNAKNTVYLQMNSLKPEDTAMYYCAADTRAAFWNIGPLNSDQYNIWGQGTQVTVSS
30 | binds | QP1129 nanobody (VHH, as m59) VHH: QVQLVESGGGSVQSGGSLRLSCAASGYSSSRYSVGWFRQAPGKEREGVAGQTPRGTTTYADSVKDRFTISRDNAKNTVYLQMNSLKPEDTAMYYCAAGQALLWASLRQTSYQFWGQGTQVTVSS
31 | binds | QP1130 nanobody (VHH, as m59) VHH: QVQLVESGGGLVQPGGSLRLSCAASGFTFSTSTMMWVRRAPGKGLEWVSGIHNDGGPIAYADSVKGRFTISRDNAKNTLYLQMTSLKSEDTALYYCARGWYFSGDYVPMTQGTQVTVSS
32 | binds | QP1121 nanobody (VHH, as m59) VHH: QVQLVESGGGSVHAGGSLRLSCVRVSMYTYTGTCMAWFRQAPGKEREGVAGLWTGDGVTYYADSVKGRFTISQDDAKNTLYLQMDSLKPEDTAMYYCASNGMCGQYWALEDEYKYWGQGTQVTVSS
